Data as given in patent publication US20060014927A1 (US Dept. of Health and Human Services, published 2006).
Bridges are numbered along the chain shown (N, C = ends). [ ]: non-standard residue; d: D form. Gla = N[C@@H](CC(C(=O)O)C(=O)O)C(=O)O; Aad = N[C@@H](CCCC(=O)O)C(=O)O

Legend:
[1] = target: T1, recombinant GST-Grb2 SH2 protein (UniProt P62993 60-152); test: comparison with the Glu1 analogue as reference; assay not named in the sentence (Biacore competition of Example 7 understood)
T1 construct: not shown: glutathione S-transferase (GST) fusion partner
Experimental: (§1) The competitive binding affinity of the present inventive compounds was assessed using Biacore Surface Plasmon Resonance (SPR) methods utilizing a Biacore 2000 instrument. […] Specifically, competitive binding assays were carried out at 5 μl/min flow rate, with GST-Grb2-SH2 (150-250 nM) and a cyclic peptide inhibitor (10 nM-2 mM) in phosphate-buffered saline (PBS), pH 7.4, containing 0.01% P-20 surfactant (Biacore, Inc., Piscataway, N.J.) for a total of 10 min. The change in response units (RU) at equilibrium was measured from the […] and the percent of control (no added peptide) was calculated. […] The results represent the mean value of at least two independent experiments.

[2] = target: T1, recombinant GST-Grb2 SH2 protein; test: Biacore SPR competition; inhibitor mixed with GST-Grb2 SH2 (150-250 nM), binding to immobilised biotin-SHC(pTyr-317)-9-mer as competitor
Experimental: as §1

Grb2 adapter protein = target: T2, Grb2 adapter protein (UniProt P62993 1-217); test: MDA-MB-453 lysates incubated with inhibitor; anti-Grb2 co-immunoprecipitation, anti-pTyr Western blot; p185erbB-2 as competitor
T2 construct: Endogenous protein in cell lysates or whole cells
Experimental: Cell lysates were prepared from the serum-treated erbB-2-overexpressing breast cancer cell line MDA-MB-453 using 1% Triton X-100 in PBS containing 0.2 mM NaVO₄. Lysates were incubated with the present inventive cyclic peptide inhibitors specified in Example 1 and Example 12, at concentrations of 0.1, 0.4, 2, 10 and 50 μM. No inhibitor was used as a control. […] Grb2 and associated Grb2-binding proteins were immunoprecipitated from each lysate (500 μg) with anti-Grb2 antibodies and collected using protein A Sepharose using methods previously described. Immunoprecipitated proteins were separated by SDS-PAGE on 8-16% gradient gels (Novex). pTyr-containing proteins were detected by Western blotting using anti-phosphotyrosine antibodies (Upstate Biotechnology Inc.). Previous experiments have shown that a major tyrosine phosphorylated protein in MDA-MB-453 cells is p185^erbB-2, which is overexpressed as a consequence of gene amplification. […] A dose-dependent inhibition of the p185^erbB-2 receptor association with the Grb2 adapter protein was observed.

T1 sequence (P62993 60-152): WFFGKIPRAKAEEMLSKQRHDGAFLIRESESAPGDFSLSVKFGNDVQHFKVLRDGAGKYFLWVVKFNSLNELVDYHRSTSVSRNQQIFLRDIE
T2 sequence (P62993 whole entry): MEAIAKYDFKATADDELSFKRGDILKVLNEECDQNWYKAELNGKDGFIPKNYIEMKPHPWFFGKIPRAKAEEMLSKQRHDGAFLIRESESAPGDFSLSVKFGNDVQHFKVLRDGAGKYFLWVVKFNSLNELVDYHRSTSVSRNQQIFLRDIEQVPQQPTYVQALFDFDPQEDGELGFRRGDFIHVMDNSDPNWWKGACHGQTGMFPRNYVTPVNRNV

B1: cyclo(CH2CO-Adi1-Leu2-Tyr3-Glu4-Asn5-Val6-Gly7-Met8-Tyr9-Cys)-amide (peptide)
peptide: {CH2CO}-[Aad]LYENVGMYC-NH2
modifications: thioether N-10
notes: Synthetic thioether-cyclised, non-phosphorylated peptide
[1]
  fold improvement of binding efficacy over Glu^1: 6 fold
[2]
  IC50: 3450 nM

B2: cyclo(CH2CO-Gla1-Leu2-Tyr3-Glu4-Asn5-Val6-Gly7-Met8-Tyr9-Cys)-NH-Ala-Ala-Val-Ala-Leu-Leu-Pro-Ala-Val-Leu-Leu-Ala-Leu-Leu-Ala-Pro (peptide)
peptide: {CH2CO}-[Gla]LYENVGMYCAAVALLPAVLLALLAP-NH2
modifications: thioether N-10; not fully specified; printed as cyclo(CH2CO-Gla1-Leu2-Tyr3-Glu4-Asn5-Val6-Gly7-Met8-Tyr9-Cys)-NH-Ala-Ala-Val-Ala-Leu-Leu-Pro-Ala-Val-Leu-Leu-Ala-Leu-Leu-Ala-Pro
Grb2 adapter protein
  IC50: 2000 nM

B3: cyclo(CH2CO-Gla1-Leu2-Tyr3-Glu4-Asn5-Val6-Gly7-Met8-Tyr9-Cys)-amide (peptide)
peptide: {CH2CO}-[Gla]LYENVGMYC-NH2
modifications: thioether N-10
SMILES: CSCC[C@@H]1NC(=O)CNC(=O)[C@H](C(C)C)NC(=O)[C@H](CC(N)=O)NC(=O)[C@H](CCC(=O)O)NC(=O)[C@H](Cc2ccc(O)cc2)NC(=O)[C@H](CC(C)C)NC(=O)[C@H](CC(C(=O)O)C(=O)O)NC(=O)CSC[C@@H](C(N)=O)NC(=O)[C@H](Cc2ccc(O)cc2)NC1=O
notes: Synthetic thioether-cyclised, non-phosphorylated peptide (L = S)
[1]
  fold improvement of binding efficacy over Glu^1: 31 fold
Grb2 adapter protein
  IC50: 2000 nM
[2]
  IC50: 640 nM

B4: cyclo(CH2CO-Adi1-Leu2-Tyr3-Adi4-Asn5-Val6-Gly7-Met8-Tyr9-Cys)-amide (peptide)
peptide: {CH2CO}-[Aad]LY[Aad]NVGMYC-NH2
modifications: thioether N-10
notes: as for B1
[2]
  IC50: 3050 nM
